In publication PMC7264293, “Multi-site-mediated entwining of the linear WIR-motif around WIPI β-propellers for autophagy” (Nature Communications, 2020):
No end group written: not given here.

Assays:
[1] = biological target: T1, WIPI3-Δloop (Homo sapiens, UniProt Q5MNZ6, DEL264-281/DEL75-80); test: ITC assay, WIR-peptide and its mutants binding to WIPI3-Δloop; conditions: WIPI3-Δloop (Fig. 3e, Supplementary Figs. 6, 7)
T1 construct: GB1-His6 (cleaved yes); made in house; host or cells: Escherichia coli BL21(DE3)
T1 sequence (Q5MNZ6 with tags, fused parts or gaps DEL75-80/DEL264-281): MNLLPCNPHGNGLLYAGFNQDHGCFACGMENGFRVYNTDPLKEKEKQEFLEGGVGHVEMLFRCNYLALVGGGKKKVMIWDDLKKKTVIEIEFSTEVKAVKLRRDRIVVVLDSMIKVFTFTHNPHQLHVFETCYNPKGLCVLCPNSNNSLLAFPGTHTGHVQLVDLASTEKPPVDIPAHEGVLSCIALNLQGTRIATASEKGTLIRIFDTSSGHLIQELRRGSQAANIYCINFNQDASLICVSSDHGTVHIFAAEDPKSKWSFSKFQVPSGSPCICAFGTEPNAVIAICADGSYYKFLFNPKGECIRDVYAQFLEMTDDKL
Experimental: (§1) DNA sequences encoding human WIPI3, WIPI3-Δloop, and two ATG2A fragments (1358–1404 and 1374–1404) were each cloned into a modified pET32a vector. The generation of the fusion construct of WIPI3-Δloop with ATG2A(1374–1404) and the mutations in WIPI3 and the ATG2A fragment were performed by using the standard PCR-based mutagenesis method and confirmed by DNA sequencing. All the primers used in the study were listed in Supplementary Table 3. Recombinant proteins were expressed in Escherichia coli BL21(DE3) (Invitrogen, C6000-03) host cells at 16 °C. […] The eluted proteins were further purified by size-exclusion chromatography (Superdex-200 26/60, GE healthcare). For WIPI3 proteins, after cleavage of the tag, the resulting proteins were purified by another step of size-exclusion chromatography with the buffer containing 50 mM Tris-HCl, pH 8.0, 100 mM NaCl, 1 mM EDTA, 1 mM DTT. For ATG2A fragments, recombinant proteins were purified in the same buffer without cleavage of the tag.
ITC assay was performed using a MicroCalorimeter ITC200 (GE Healthcare Life Sciences, USA) at 25 °C. Prior to the experiment, the protein samples were dialyzed in the buffer containing 50 mM Tris-HCl, pH 8.0, 100 mM NaCl, 1 mM EDTA, and 1 mM DTT. WIPI3 proteins were put in the sample cell and GB1-tagged ATG2A fragments were in the syringe of the instrument. In each experiment, the ATG2A fragment was sequentially injected into the stirred calorimeter cell initially containing the WIPI3 protein sample with the injection sequence of 20 × 2 µl at 2-min intervals. The heat of dilution obtained by the titration of the ATG2A fragment into the buffer was subtracted. The integrated, corrected, and concentration-normalized peak areas of the raw data were finally fitted with a model of one binding site using ORIGIN 7.0 (OriginLab).

[2] = test system: NRK cells with double knock out of ATG2A/ATG2B and stable expression of GFP-LC3; test: Autophagic flux in ATG2A/ATG2B DKO NRK cells in the presence of bafilomycin A1; assay type: cell-based, rat; conditions: ATG2A/ATG2B-depleted NRK cells without ATG2A transfection; 10 nM, 2 h
Experimental: NRK cells with double knock out of ATG2A/ATG2B and stably transfected with GFP-LC3 were generous gifts from L.Y., Tsinghua University. DNA sequences encoding full-length ATG2A and its various mutants were cloned into the pCAG-Tandem-Strep-Flag vector. Cells were cultured in DMEM (GIBCO) supplemented with 10% (v/v) fetal bovine serum, 100 U/ml penicillin and 0.1 mg/ml streptomycin and were grown at 37 °C in a humidified atmosphere containing 5% (v/v) CO2. Cells were transfected with wild-type ATG2A and various mutants by the electroporation apparatus (Bio-Rad) according to the manufacturer’s instructions. After 48 h, cells were washed three times by PBS and fixed by 4% (w/v) paraformaldehyde. […] ATG2A and its various mutants were detected by immunofluorescence with the anti-Flag primary antibody (Sigma-Aldrich, F1804, 1:300 dilution) and dylight 594 secondary antibody (EarthOx, E032410-01, 1:500 dilution). Fluorescence images were obtained on an inverted confocal microscope (LSM 880, Carl Zeiss) equipped with a 100 × oil-immersion objective lens (NA = 1.30). […] All the fluorescence images were processed and analyzed using the ZEN imaging software (Carl Zeiss). […]
μm. (b) Quantification of the increment of LC 3 -positive structures with bafilomycin […]
A1 treatment. The increment o f LC 3 -positive structures per cell was quantified with […]
used for quantifi cation (n = 3) . […]

[3] = test system: NRK cells with double knock out of ATG2A/ATG2B and stable expression of GFP-LC3; test: LC3-positive structures in ATG2A/ATG2B DKO NRK cells transfected with ATG2A; assay type: cell-based, rat; conditions: transfection of full-length ATG2A into ATG2A/B-depleted NRK cells
Experimental: NRK cells with double knock out of ATG2A/ATG2B and stably transfected with GFP-LC3 were generous gifts from L.Y., Tsinghua University. DNA sequences encoding full-length ATG2A and its various mutants were cloned into the pCAG-Tandem-Strep-Flag vector. Cells were cultured in DMEM (GIBCO) supplemented with 10% (v/v) fetal bovine serum, 100 U/ml penicillin and 0.1 mg/ml streptomycin and were grown at 37 °C in a humidified atmosphere containing 5% (v/v) CO2. Cells were transfected with wild-type ATG2A and various mutants by the electroporation apparatus (Bio-Rad) according to the manufacturer’s instructions. After 48 h, cells were washed three times by PBS and fixed by 4% (w/v) paraformaldehyde. For bafilomycin A1 treatment, cells were cultured in the complete medium containing 10 nM bafilomycin A1 for 2 h before being fixed. ATG2A and its various mutants were detected by immunofluorescence with the anti-Flag primary antibody (Sigma-Aldrich, F1804, 1:300 dilution) and dylight 594 secondary antibody (EarthOx, E032410-01, 1:500 dilution). Fluorescence images were obtained on an inverted confocal microscope (LSM 880, Carl Zeiss) equipped with a 100 × oil-immersion objective lens (NA = 1.30). Confocal settings used for image capture were held constant in comparison experiments. All the fluorescence images were processed and analyzed using the ZEN imaging software (Carl Zeiss). […]

[4] = test system: WIPI3-Δloop N19A/D21A; test: ITC assay, WIR-peptide binding to WIPI3-Δloop N19A/D21A; parameters: species or system human; conditions: WIPI3-Δloop N19A/D21A mutant (Supplementary Fig. 5b)
Experimental: as §1
ITC assay was performed using a MicroCalorimeter ITC200 (GE Healthcare Life Sciences, USA) at 25 °C. […]
Supplementary Fig. 5 Structural analysis of the A -B loop of blade 1. […] (b) The binding affinity between the W IR -pept ide and th e W IP I3 -Δloop N19A/D21 A mutant determined b y IT C ex periments. […]

WIR-peptide V1391Q: WIR-peptide with V1391Q point mutation (PRDGEPVVTQLHPGPIVQRDGYFSRPIGSTD; also: GB1 tag, end not given here, His6 tag, end not given here)
effect of the WIR-peptide mutation on the binding, in words [1]: severely impaired the binding

CO/C1=C\C(C)=C\[C@@H](C)[C@@H](O)[C@@H](C)C/C(C)=C/C=C/[C@H](OC)[C@@H]([C@@H](C)[C@@H](O)[C@H](C)[C@@]2(O)C[C@@H](O)[C@H](C)[C@@H](C(C)C)O2)OC1=O [bafilomycin A1]
increase of LC3-positive structures in the presence of bafilomycin A1, in words [2]: No obvious increase

WIR-peptide D1393A: WIR-peptide with D1393A mutation (PRDGEPVVTQLHPGPIVVRAGYFSRPIGSTD; also: GB1 tag, end not given here, His6 tag, end not given here)
effect of the WIR-peptide mutation on the binding, in words [1]: disrupted the binding

WIR-peptide V1380A: WIR-peptide with V1380A point mutation (PRDGEPAVTQLHPGPIVVRDGYFSRPIGSTD; also: GB1 tag, end not given here, His6 tag, end not given here)
effect of the WIR-peptide mutation on the binding, in words [1]: affected the binding

ATG2A WT: full-length wild-type ATG2A, Tandem-Strep-Flag-tagged, expressed by transfection
rescue of the depletion defect (large LC3-positive clusters), in words [3]: could rescue the depletion defect

WIR-peptide V1381A: WIR-peptide with V1381A point mutation (PRDGEPVATQLHPGPIVVRDGYFSRPIGSTD; also: GB1 tag, end not given here, His6 tag, end not given here)
effect of the WIR-peptide mutation on the binding, in words [1]: decreased the binding more severely

WIR-peptide: GB1-tagged recombinant short fragment (1374–1404) of ATG2A, minimum WIPI-interacting region (PRDGEPVVTQLHPGPIVVRDGYFSRPIGSTD; also: GB1 tag, end not given here, His6 tag, end not given here)
binding of the WIR-peptide, in words [4]: abolished the binding
